Experimental data reported in a protein production outcome set (Wang et al. 2014).

Assay: label from the status in PepcDB records

Sequence | protein production
PGRPTMMISTTAMNTALLQWHPPKELPGELLGYRLQYCRADEARPNTIDFGKDDQHFTVTGLHKGTTYIFRLAAKNRAGLGEEFEKEIRTPEDL | not failed
PHRAVVNFLLSMTNQPGINAGDRLLAVTSISFDISVLELFLPLISGASLVLADSEAAADGQALIKLAMHQDVTFIQATPSNYWLMLEAGWPSTLKLKVLCGGEALPPVLAQKLLQRSDSVWNMYGPTETTIWSAISRVTGSASTLGRP | failed
PIIFVPGIMGSRLKFAKGKKQGTRAWDPDSSGFMFLNYGRFDVSAKKKKALLVGPEFDPDYLEVDTNNPKLDKSFLRRYPRADKRGWGGVMWGSYGPILRALHDHQWEEPVGHCFEFPVHAFGYNWTASNMEAGRKLKEYIGATIDHYAKGLRDEAGRPLERLCTRVILVTHSMGGLVARSACVLHGAAEKVLGVVHGVQPATGSPAAYWRMK | failed
PISRLAQIQQARKEKEPDYILLSERGMPRRREFVMQVKVGNEVATGTGPNKKIAKKNAAEAMLLQLGYKASTSLQD | not failed
PKKPGTGKHIVYFPGANTYYQACFRDISTACKETGATVHAFNFPGTGLSSGKVREANDLINAGISVVSSLIKQGVHPDDIILQGDCYGASIALEVKKQLEDQ | failed
PKPLKNLDGQFCEICGDQIGLTVEGDLFVACNECGFPACRPCYEYERREGTQNCPQCKTRYKRLRGSPRVEGDEDEEDID | not failed
PKSQACEPSEPEIEIKLPKLRTLDVFSGCGGLSEGFHQAGISDTLWAIEMWDPAAQAFRLNNPGSTVFTEDCNILLKLVMAGETTNSRGQRLPQKGDVEMLCGGPPCQGFSGMNRFNSRTYSKFKNSLVVSFLSYCDYYRPRFFLLENVRNFVSFKRSMVLKLTLRCLVRMGYQCTFGVLQAGQYGVAQTRRRAIILAAAPGEKLPLFPEPLHVFAPRACQLSVVVDDKKFVSNITRLSSGPFRTITVRDTMSDLPEVRNGASALEISYNGEPQSWFQRQLRGAQYQPILRDHICKDMSALVAARMRHIPLAPGSDWRDLPNIEVRLSDGTMARKLRYTHHDRKNGRSSSGALRGVCSCVEAGKACDPAARQFNTLIPWCLPHTGNRHNHWAGLYGRLEWDGFFSTTVTNPEPMGKQGRVLHPEQHRVVSVRECARSQGFPDTYRLFGNILDKHRQVGNAVPPPLAKAIGLEIKLCML | failed
PLKEQKVINTANITTNSKLDLAEYENGLMNIAKEQFDTENHVLQLNQYIPEKLVDELVAKVKAPVLTNIIEQDYFGKQNSNELSLSGVMIGLAMSSSVSNEEAMSKGTEVANQLIEAIHKNDKYNKSPITFAIFKQESTSSLKNGTYIASATVQKNDTNIGNWNAIEEKAYSYPSDEFTQAHGEDNTKIDDFAKEMKGFSPGDFIPVNAKVSYKKNQMDTLNMNIVIKYNGKTELMALTQLAAQIMLEQLPKDAKVQLQIKSENKIEAIVIKEKNSDKPFV | not failed
PLKEQKVINTANITTNSKLDLAEYENGLMNIAKEQFDTENHVLQLNQYIPEKLVDELVAKVKAPVLTNIIEQDYFGKQNSNELSLSGVMIGLAMSSSVSNEEAMSKGTEVANQLIEAIHKNDKYNKSPITFAIFKQESTSSLKNGTYIASATVQKNDTNIGNWNAIEEKAYSYPSDEFTQAHGEDNTKIDDFAKEMKGFSPGDFIPVNAKVSYKKNQMDTLNMNIVIKYNGKTELMALTQLAAQIMLEQLPKDAKVQLQIKSENKIEAIVIKEKNSDKPFVSFL | not failed
PNRRADDNATIRVTNLSEDTRETDLQELFRPFGSISRIYLAKDKTTGQSKGFAFISFHRREDAARAIAGVSGFGYDHLILNVEWAKPSTN | not failed
PPLEINSRVSLKVGETIESGTVIFCDVLPGKESLGYFVGVDMDNPIGNWDGRFDGVQLCSFACVESTILLHINDIIPES | not failed
PPPAPIPDLKVFEREGVQLNLSFIRPPENPALLLITITATNFSEGDVTHFICQAAVPKSLQLQLQAPSGNTVPARGGLPITQLFRILNPNKAPLRLKLRLTYDHFHQSVQEIFEVNNLPVESWQ | not failed
PQEKLKLLAFTGTKGKTTAAYFAYHMLKESYKPAMFSTMNTTLDGKTFFKSQLTTPESLDLFAMMAECVTNGMTHLIMEVSSQAYLVDRVYGLTFDVGVFLNISPDHIGPIEHPTFEDYFYHKRLLMENSRAVVINSGMDHFSFLADQVADQEHVFYGPLSDNQITTSQAFSFEAKGQLAGHYDIQLIGHFNQENAMAAGLACLRLGASLADIQKGIAKTRVPGR | failed
PQLVRTHEDVPGPVGHLSFSEILDTSLKVSWQEPGEKNGILTGYRISWEEYNRTNTRVTHYLPNVTLEYRVTGLTALTTYTIEVAAMTSKGQGQVSASTISSGVPP | not failed
PRSRTKISLEALGILQSFIHDVGLYPDQEAIHTLSAQLDLPKHTIIKFFQNQRYHVKH | not failed
PRWSVAAATAVTDFCDRLACDRVALGRRHRRRSKVVSLSHSGNFQRSSELVQRIADAMDEAIDQGEPIRMPQDSDNTLTLTAAHQELIHSGVPRAVLTVLLRRDGRVTGAMVLERGGNNPFRDEEVELVEAVAGILGPVLEEKRLNDR | failed
PSFNLGYIGLNNRNEYLKNPKVRQAISMAINRRAVVDAFWSGLGRTDTSIVPPALGWATSSKVPADYKFDPAAAKKLLAEAGYPNGFTLDFWYMPITRSYFPQPKASAEAMAADLADVGIKVNLKTEDWAKYLDDLFAGRLSMFQIGLIGDYGDPDYFYGALYNPTSTNDIGWNAPAELDTLLQQARSGLTRQARAQAYARIHELTYNAGYRIPLVHSQ | failed
PSGATGKDGLAIPVGKDTAKSSLTVWEDFRCPACKIFETTYRPTLHELVGAGKLKIDYHLVTIIDDGRGGSGSRQAANAAACAQDAGKFTAYHDVLYDNQPDETVDSFADDSKLIELAGKVDGLDTPAFRKCVKDGTHNSWVVKSNAAFDSGGFKGTPTVLFGGKNLAADPTMTPAKLKQMVEAANK | failed
PSGFPQNLHVTGLTTSTTELAWDPPVLAERNGRIISYTVVFRDINSQQELQNITTDTRFTLTGLKPDTTYDIKVRAWTSKGSGPLSPSIQSRTMPV | not failed
PSNAMKQAWLQISQDNKLMSCNDTSKANALLDMVTQGLNPAKNQCYFIPYGNKMQLQRSYHGNVMMLKRDAGAQDVVAQVIYKGDTFKQEMGETGRIKAIKHEQDFFNIDKENIIGAYCTIVFNDGRDNYIEVMTIEQIKQAWMQSSMIKDEKALQNSKTHNNFKEEMAKKTVINRAAKRYINTSTDSNLFKYAQESEQRQRKEVLDAEVEENANQE | not failed
PSPGGQMHAGISSFQQSNSSGTYGPQMSQYGPQGNYSRPPAYSGVPSASYSGPGPGMGISANNQMHGQGPSQPCGAVPLGRMPSAGMQNRPFPGNMSSMTPSSPGMSQQGGPGMGPPMPTVNRKAQEAAAAVMQAAANSAQSRQGSFPGMNQSGLMASSSPYSQPMNNSSSLMNTQAPPYSMAPAMVNSSAASVGLADMMSPGESKLPLPLKADGKEEGTPQPESKSKDSYSSQGISQPPTPGNLPVPSPMSPSSASISSFHGDESDSISSPGWPKTPSSPKSSSSTTTGEKITKVYELGNEPERKLWVDRYLTFMEERGSPVSSLPAVGKKPLDLFRLYVCVKEIGGLAQVNKNKKWRELATNLNVGTSSSAASSLKKQYIQYLFAFECKIERGEEPPPEVFSTGDTKKQPKLQPPSPANSGSLQGPQTPQSTGSNSMAEVPGDLKPPTPASTPHGQMTPMQGGRSSTISVHDPFSDVSDSSFPKRNSMTPNAPYQQGMSMPDVMGRMPYEPNKDPFGGMRKVPGSSEPFMTQGQMPNSSMQDMYNQSPSGAMSNLGMGQRQQFPYGASYDRRHEPYGQQYPGQGPPSGQPPYGGHQPGLYPQQPNYKRHMDGMYGPPAKRHEGDMYNMQYSSQQQEMYNQYGGSYSGPDRRPIQGQYPYPYSRERMQGPGQIQTHGIPLQMMGGPLQSSSSEGPQQNMWAARNDMPYPYQNRQGPGGPTQAPPYPGMNRTDDMMVPDQRINHESQWPSHVSQRQPYMSSSASMQPITRPPQPSYQTPPSLPNHISRAPSPASFQRSLENRMSPSKSPFLPSMKMQKVMPTVPTSQVTGPPPQPPPIRREITFPPGSVEASQPVLKQRRKITSKDIVTPEAWRVMMSLKSGLLAESTWALDTINILLYDDSTVATFNLSQLSGFLELLVEYFRKCLIDIFGILMEYEVGDPSQKALDHNAARKDDSQSLADDSGKEEEDAECIDDDEEDEEDEEEDSEKTESDEKSSIALTAPDAAADPKEKPKQASKFDKLPIKIVKKNNLFVVDRSDKLGRVQEFNSGLLHWQLGGGDTTEHIQTHFESKMEIPPRRRPPPPLSSAGRKKEQEGKGDSEEQQEKSIIATIDDVLSARPGALPEDANPGPQTESSKFPFGIQQAKSHRNIKLLEDEPRSRDETPLCTIAHWQDSLAKRCICVSNIVRSLSFVPGNDAEMSKHPGLVLILGKLILLHHEHPERKRAPQTYEKEEDEDKGVACSKDEWWWDCLEVLRDNTLVTLANISGQLDLSAYTESICLPILDGLLHWMVCPSAEAQDPFPTVGPNSVLSPQRLVLETLCKLSIQDNNVDLILATPPFSRQEKFYATLVRYVGDRKNPVCREMSMALLSNLAQGDALAARAIAVQKGSIGNLISFLEDGVTMAQYQQSQHNLMHMQPPPLEPPSVDMMCRAAKALLAMARVDENRSEFLLHEGRLLDISISAVLNSLVASVICDVLFQIGQL | not failed
PSYTVTVATGSQWFAGTDDYIYLSLVGSAGCSEKHLLDKPFYNDFERGAVDSYDVTVDEELGEIQLVRIEKRKYWLNDDWYLKYITLKTPHGDYIEFPCYRWITGDVEVVLRDGRAKLARDDQIHILKQHRRKELETRQKQYRWMEWNPGFPLSIDAKCHKDLPRDIQFDSEKGVDFVLNYSKAMENLFINRFMHMFQSSWNDFADFEKIFVKISNTISERVMNHWQEDLMFGYQFLNGCNPVLIRRCTELPEKLPVTTEMVECSLERQLSLEQEVQQGNIFIVDFELLDGIDANKTDPCTLQFLAAPICLLYKNLANKIVPIAIQLNQIPGDENPIFLPSDAKYDWLLAKIWVRSSDFHVHQTITHLLRTHLVSEVFGIAMYRQLPAVHPIFKLLVAHVRFTIAINTKAREQLICECGLFDKANATGGGGHVQMVQRAMKDLTYASLCFPEAIKARGMESKEDIPYYFYRDDGLLVWEAIRTFTAEVVDIYYEGDQVVEEDPELQDFVNDVYVYGMRGRKSSGFPKSVKSREQLSEYLTVVIFTASAQHAAVNFGQYDWCSWI | failed
PVGAVMTPRPEVDMIDLSDPPDQIRATFASSPHSRLPATDGDRDDPIGIIQSKDVLEVYLRGETPDFRALVRDAPVIPASADARDALIMLRNASVHMGLVYDEFGGFEGVVSTADILESIVGAFSSEDG | failed
PVPATPILQLEECCTHNNSATLSWKQPPLSTVPADGYILELDDGNGGQFREVYVGKETMCTVDGLHFNSTYNARVKAFNKTGVSPYSKTLVLQTSEG | not failed
PYYLFMTMYWHHTSTTPVSTVLITHGYAEHQGRYSALVRSLLNYNFDVVTFDLPGHGYAPGPRACVDVDKLVDFHVALRHRAEQDCRLRTETMCLFGHSMGGLITALSVLEDSSNVSAVALSGPAFSPFPKTPRVVTRMLRCSARIAPRLKVLALPQDAISRDPEVVAAYANDPRNYTGRVPLLTGASMALAGQKALAQASQWDRSVPLLVMHGSADRLADIEGSRNFAASAGGTMRPVDGAFHEIFNEPEAPQLRAELCEWLHANCG | failed
QEQRMSHHYATIEVSQQLRQLLGDQLVILLRETPDGQALERSQNDFRRVLEQGRANTVDSAEQAALDGVRDAYLQLQAHTPALLEAPMADNDGFSEAFNGLRLRLQDLQQLALAGISEAETSARHRA | not failed
